From the RNAGym collection of RNA variant scans (doi:10.1021/acssynbio.7b00057)

B1: Pistol ribozyme (parent)
chain: GGGUCGUUGUUCCAUAAUCGCGUGGAUAUGGCACGCAAGUUUCUACCGGGCACCGUAAAUGUCCGACUGGAGCCGUUCGGGCGGCUAUAAACAGACCUCAGGCCCGAAGCGUGGCGGCACCUGCCGCCGGUGGUAAAAAAGAUCGGAAGAGCACACGUCU

Variants of: B1
Assay: aptazyme ON/OFF ratio, guanine; higher = stronger switching; co-transcriptional cleavage with and without guanine

| Variant | aptazyme ON/OFF ratio |
| --- | --- |
| U7C U8C G9A U10A U11A | 3.49 |
| U7C U8C G9A U10A U11C | 1.21 |
| U7C U8C G9A U10A U11G | 1.55 |
| U7C U8C G9A U10A U11G C12A | 1.08 |
| U7C U8C G9A U10A U11G C12U | 1.35 |
| U7C U8C G9A U10A U11G C12G | 1.25 |
| U7C U8C G9A U10A C12U C13U | 1.13 |
| U7C U8C G9A U10A C12U C13G | 1.19 |
| U7C U8C G9A U10A C12U C13A | 1.14 |
| U7C U8C G9A C12A C13U | 1.42 |
| U7C U8C G9A C12A C13A | 1.24 |
| U7C U8C G9A C12A C13G | 1.05 |
| U7C U8A U10G U11G C12A C13U | 1.29 |
| U7C U8A U10G U11G C12A C13G | 1.09 |
| U7C U8A U10G U11G C12A C13A | 1.18 |
| U7C U8C G9A U10A U11A C13U | 1.25 |
| U7C U8C G9A U10A U11A C13G | 1.2 |
| U7C U8C G9A U10A U11A C13A | 1.18 |
| U7C U8A U11C C12A | 1.35 |
| U7C U8A U11C C12U | 1.44 |
| U7C U8A U11C C12G | 1.36 |
| U7C U8C G9A U10A C12G | 1.39 |
| U7C U8C G9A U10A C12A | 1.44 |
| U7C U8C G9A U10A C12U | 1.69 |

| Variant | aptazyme ON/OFF ratio |
| --- | --- |
| U7C U8A U10G U11C C12U C13U | 1.41 |
| U7C U8A U10G U11C C12U C13A | 1.35 |
| U7C U8A U10G U11C C12U C13G | 1.23 |
| U7C U8C C12U C13U | 1.29 |
| U7C U8C C12U C13G | 1.2 |
| U7C U8C C12U C13A | 1.41 |
| U7C U8A U11A C12U | 1.16 |
| U7C U8A U11A C12G | 1.09 |
| U7C U8A U11A C12A | 1.28 |
| U7C U8C | 3.51 |
| U7C U8C G9A C12A | 1.51 |
| U7C U8C G9A C12G | 1.41 |
| U7C U8C G9A C12U | 1.72 |
| U7C U8A U11G C13A | 1.14 |
| U7C U8A U11G C13U | 1.19 |
| U7C U8A U11G C13G | 1.06 |
| U7C U8A U11A C12G C13U | 1.12 |
| U7C U8A U11A C12G C13A | 1.09 |
| U7C U8A U11A C12G C13G | 1.16 |
| U7C U8C G9A U10A C12G C13U | 1.16 |
| U7C U8C G9A U10A C12G C13A | 1.11 |
| U7C U8C G9A U10A C12G C13G | 1.27 |
| U7C U8A U11C C12U C13G | 1.27 |
| U7C U8A U11C C12U C13A | 1.31 |

| Variant | aptazyme ON/OFF ratio |
| --- | --- |
| U7C U8A U11C C12U C13U | 1.19 |
| U7C U8C G9A U10A U11C C13G | 1.04 |
| U7C U8C G9A U10A U11C C13A | 1.16 |
| U7C U8C G9A U10A U11C C13U | 1.11 |
| U7C U8C C12G C13U | 1.15 |
| U7C U8C C12G C13A | 1.12 |
| U7C U8C C12G C13G | 1.14 |
| U7C U8A U11A C12A C13U | 1.26 |
| U7C U8A U11A C12A C13G | 1.08 |
| U7C U8A U11A C12A C13A | 1.12 |
| U7C U8C G9A U10A U11C C12G C13U | 1.31 |
| U7C U8C G9A U10A U11C C12G C13A | 1.4 |
| U7C U8C G9A U10A U11C C12G C13G | 1.4 |
| U7C U8C C13A | 1.21 |
| U7C U8C C13U | 1.56 |
| U7C U8C C13G | 1.17 |
| U7C U8A U10G U11G C12U C13G | 1.22 |
| U7C U8A U10G U11G C12U C13A | 1.21 |
| U7C U8A U10G U11G C12U C13U | 1.44 |
| U7C U8C G9A U10A U11A C12A | 1.5 |
| U7C U8C G9A U10A U11A C12G | 1.33 |
| U7C U8C G9A U10A U11A C12U | 1.41 |
| U7C U8A U10G U11C C13U | 1.05 |
| U7C U8A U10G U11C C13A | 1.08 |

| Variant | aptazyme ON/OFF ratio |
| --- | --- |
| U7C U8A U10G U11C C13G | 1.08 |
| U7C U8A U10G U11G C12U | 1.28 |
| U7C U8A U10G U11G C12A | 1.2 |
| U7C U8A U10G U11G C12G | 1.18 |
| U7C U8C G9A U10A U11G C12G C13G | 1.15 |
| U7C U8C G9A U10A U11G C12G C13A | 1.13 |
| U7C U8C G9A U10A U11G C12G C13U | 1.14 |
| U7C U8A U11G C12U C13A | 1.29 |
| U7C U8A U11G C12U C13U | 1.37 |
| U7C U8A U11G C12U C13G | 1.13 |
| U7C U8C G9A | 1.59 |
| U7C U8C G9A U10A C12A C13G | 1.12 |
| U7C U8C G9A U10A C12A C13U | 1.21 |
| U7C U8C G9A U10A C12A C13A | 1.19 |
| U7C U8C G9A U10A U11G C12A C13U | 1.16 |
| U7C U8C G9A U10A U11G C12A C13A | 1.09 |
| U7C U8C G9A U10A U11G C12A C13G | 1.09 |
| U7C U8C G9A U10A U11C C12U C13U | 1.13 |
| U7C U8C G9A U10A U11C C12U C13A | 1.15 |
| U7C U8C G9A U10A U11C C12U C13G | 1.2 |
| U7C U8A U10G U11C C12U | 1.09 |
| U7C U8A U11A | 1.13 |
| U7C U8A U11C | 1.1 |
| U7C U8A U11G | 1.18 |

| Variant | aptazyme ON/OFF ratio |
| --- | --- |
| U7C U8C G9A U10A U11C C12G | 1.23 |
| U7C U8C G9A U10A U11C C12U | 1.2 |
| U7C U8C G9A U10A U11C C12A | 1.37 |
| U7C U8C G9A C12G C13G | 1.28 |
| U7C U8C G9A C12G C13U | 1.24 |
| U7C U8C G9A C12G C13A | 1.25 |
| U7C U8A U11A C12U C13U | 1.24 |
| U7C U8A U11A C12U C13A | 1.16 |
| U7C U8A U11A C12U C13G | 1.15 |
| U7C U8A U10G U11G C12G C13G | 1.17 |
| U7C U8A U10G U11G C12G C13U | 1.25 |
| U7C U8A U10G U11G C12G C13A | 1.08 |
| U7C U8A U10G U11G | 1.24 |
| U7C U8A U11A C13G | 1.08 |
| U7C U8A U11A C13A | 1.15 |
| U7C U8A U11A C13U | 1.12 |
| U7C U8A U11C C12G C13G | 1.26 |
| U7C U8A U11C C12G C13A | 1.3 |
| U7C U8A U11C C12G C13U | 1.3 |
| U7C U8A U11G C12A C13G | 1.14 |
| U7C U8A U11G C12A C13A | 1.11 |
| U7C U8A U11G C12A C13U | 1.24 |
| U7C U8A U11C C12A C13A | 1.29 |
| U7C U8A U11C C12A C13U | 1.25 |

| Variant | aptazyme ON/OFF ratio |
| --- | --- |
| U7C U8A U11C C12A C13G | 1.18 |
| U7C U8A U11G C12G C13A | 1.1 |
| U7C U8A U11G C12G C13U | 1.13 |
| U7C U8A U11G C12G C13G | 1.13 |
| U7C U8C C12U | 1.75 |
| U7C U8C C12A | 1.37 |
| U7C U8C C12G | 1.18 |
| U7C U8C G9A U10A U11C C12A C13A | 1.17 |
| U7C U8C G9A U10A U11C C12A C13G | 1.18 |
| U7C U8C G9A U10A U11C C12A C13U | 1.31 |
| U7C U8A U11C C13A | 1.1 |
| U7C U8A U11C C13G | 1.06 |
| U7C U8A U11C C13U | 1.04 |
| U7C U8C C12A C13A | 1.23 |
| U7C U8C C12A C13G | 1.1 |
| U7C U8C C12A C13U | 1.34 |
| U7C U8A U10G U11C C12G C13U | 1.38 |
| U7C U8A U10G U11C C12G C13G | 1.14 |
| U7C U8A U10G U11C C12G C13A | 1.3 |
| U7C U8C G9A U10A | 1.54 |
| U7C U8C G9A U10A U11A C12A C13A | 1.2 |
| U7C U8C G9A U10A U11A C12A C13G | 1.16 |
| U7C U8C G9A U10A U11A C12A C13U | 1.19 |
| U7C U8C G9A U10A U11G C12U C13A | 1.13 |

| Variant | aptazyme ON/OFF ratio |
| --- | --- |
| U7C U8C G9A U10A U11G C12U C13U | 1.16 |
| U7C U8C G9A U10A U11G C12U C13G | 1.21 |
| U7C U8A U10G U11G C13A | 1.23 |
| U7C U8A U10G U11G C13G | 1.12 |
| U7C U8A U10G U11G C13U | 1.32 |
| U7C U8C G9A C13U | 1.83 |
| U7C U8C G9A C13A | 1.24 |
| U7C U8C G9A C13G | 1.11 |
| U7C U8C G9A U10A C13A | 1.15 |
| U7C U8C G9A U10A C13G | 1.1 |
| U7C U8C G9A U10A C13U | 2.14 |
| U7C U8C G9A U10A U11A C12U C13G | 1.13 |
| U7C U8C G9A U10A U11A C12U C13A | 1.27 |
| U7C U8C G9A U10A U11A C12U C13U | 1.11 |
| U7C U8C G9A C12U C13A | 1.27 |
| U7C U8C G9A C12U C13G | 1.27 |
| U7C U8C G9A C12U C13U | 1.26 |
| U7C U8A U11G C12G | 1.19 |
| U7C U8A U11G C12A | 1.08 |
| U7C U8A U11G C12U | 1.3 |
| U7C U8C G9A U10A U11A C12G C13A | 1.21 |
| U7C U8C G9A U10A U11A C12G C13U | 1.15 |
| U7C U8C G9A U10A U11A C12G C13G | 1.12 |
